Data as given in US20110039770A1 (PHARMAGAP, published 2011).

How the values were obtained:
[1] = target: T1, PKC-ε (endogenous, IMR-32 lysate) (human, UniProt Q02156 1-737); test: WB competition Protocol B, IMR-32 extract, vs anti-PKC-ε Ab; PKC-ε Band 1; 100 µg peptide
T1 construct: Band 1 and Band 2 (alternate splicing variants, not identified further) are kept under one molecule; the band is named in the assay field of each row; also called PKC-epsilon; PKC-ε Band 1
T1 sequence (looked up): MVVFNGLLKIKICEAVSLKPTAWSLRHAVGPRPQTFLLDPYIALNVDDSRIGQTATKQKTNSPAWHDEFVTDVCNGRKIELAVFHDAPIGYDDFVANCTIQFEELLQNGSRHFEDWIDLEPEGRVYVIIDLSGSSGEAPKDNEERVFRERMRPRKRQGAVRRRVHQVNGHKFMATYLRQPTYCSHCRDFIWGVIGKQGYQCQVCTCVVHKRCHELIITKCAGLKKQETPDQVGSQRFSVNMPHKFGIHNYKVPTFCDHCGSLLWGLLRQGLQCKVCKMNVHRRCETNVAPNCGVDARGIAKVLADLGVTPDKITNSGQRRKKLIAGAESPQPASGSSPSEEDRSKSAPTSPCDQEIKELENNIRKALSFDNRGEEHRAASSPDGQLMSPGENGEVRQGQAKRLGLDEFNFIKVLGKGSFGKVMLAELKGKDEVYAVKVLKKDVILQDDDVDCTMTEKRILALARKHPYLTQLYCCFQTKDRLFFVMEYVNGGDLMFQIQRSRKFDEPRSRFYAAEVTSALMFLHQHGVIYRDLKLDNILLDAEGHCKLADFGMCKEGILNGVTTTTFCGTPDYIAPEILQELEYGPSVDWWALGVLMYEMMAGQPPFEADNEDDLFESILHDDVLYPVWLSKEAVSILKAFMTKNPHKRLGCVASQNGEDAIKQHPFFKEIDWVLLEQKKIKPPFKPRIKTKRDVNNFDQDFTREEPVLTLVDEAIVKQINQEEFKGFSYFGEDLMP
Protocol: (§1) The ability of the peptides PRE 2 and PRE 3 (see Table 4) to interfere with the binding of a PKC-α-specific polyclonal antibody (Santa Cruz Biotechnology, Inc.) to PKC-α was determined using a modified version of the protocol outlined above in which the test peptide was added directly to the cell extract prior to electrophoresis at a concentration of either 5× or 15× the concentration of the protein applied to each well of the gel for the Western blots (20 μg).
(§2) Peptides PRE 2, PRE 3 and PRE 4 (see Table 4) were tested for their ability to interfere with the binding of isoform-specific polyclonal antibodies (Santa Cruz Biotechnology, Inc.) to […] using the general protocol described in Example 3. Two bands, representing alternate splicing variants of PKC-ε, were identified on the Western blot using this anti-PKC-ε antibody.

[2] = target: T2, PKC-βII (purified isoform) (Homo sapiens (Human), UniProt P05771 2-621); test: competitive ELISA, coated purified PKC-βII, vs anti-PKC βII (SC-210); PRE 100 µM
T2 construct: also called PKC-beta II; PKC beta 2
Protocol: (§3) Greiner 96 well ELISA plates were coated with the appropriate PKC isoform diluted in PBSN (PBS with Calcium/Magnesium+0.05% Sodium azide w/w). 50 μL/well at 250 ng/mL was used. Control wells contained PBSN only. Plates were incubated overnight at 4° C.
(§4) The plates were washed 3 times with 200 μL of dH₂O per well, then 100 μL of blocking solution was added per well and the plate incubated for 1 h at 37° C. The washing steps with dH₂O were repeated and 50 μL of the appropriate PRE solution (PRE stock solution [20 mM in DMSO] diluted in PBSN) was added and the plate incubated for 1 h at room temperature.
(§5) 50 μL of 1:1000 dilution of Alkaline Phosphatase (AP) conjugated antibody (anti-rabbit for all except zeta, which was anti-goat) was then added and the plate incubated for 1 h at room temperature. Washing with dH₂O was then repeated. Finally, 100 μL of pNPP solution in pNPP buffer (2 mM MgCl₂, 100 mM Sodium bicarbonate in water, pH 9.8) was added to all wells and incubated for 8 minutes for α, βI, βII ε, and ζ, or for 15-20 mins for δ (until sufficient coloration is observed). The reaction was stopped by addition of Stop solution (2N NaOH) and the absorbance at 405 nm was read on a Galaxy Plate reader.

[3] = target: T3, PKC-βI (purified isoform) (Homo sapiens (Human), UniProt P05771 2-671); test: competitive ELISA, coated purified PKC-βI, vs anti-PKC βI (SC-209); PRE 200 µM
T3 construct: also called PKC-beta I; PKC beta 1
Protocol: as §3, §4, §5

[4] = target: T1, PKC-ε (endogenous, IMR-32 lysate); test: WB competition Protocol B, IMR-32 extract, vs anti-PKC-ε Ab; PKC-ε Band 2; 20 µg peptide
Protocol: as §1, §2

[5] = target: T1, PKC-ε (endogenous, IMR-32 lysate); test: WB competition Protocol B, IMR-32 extract, vs anti-PKC-ε Ab; PKC-ε Band 1; 50 µg peptide
Protocol: as §1, §2

PKC-δ (purified isoform) [6] = target: T4, PKC-δ (purified isoform); test: competitive ELISA, coated purified PKC-δ, vs anti-PKC δ (SC-213); PRE 200 µM
T4 construct: also called PKC-delta
Protocol: as §3, §4, §5

PKC-δ (purified isoform) [7] = target: T4, PKC-δ (purified isoform); test: competitive ELISA, coated purified PKC-δ, vs anti-PKC δ (SC-213); PRE 50 µM
Protocol: as §3, §4, §5

[8] = target: T3, PKC-βI (purified isoform); test: competitive ELISA, coated purified PKC-βI, vs anti-PKC βI (SC-209); PRE 50 µM
Protocol: as §3, §4, §5

[9] = target: T1, PKC-ε (endogenous, IMR-32 lysate); test: WB competition Protocol B, IMR-32 extract, vs anti-PKC-ε Ab; PKC-ε Band 2; 100 µg peptide
Protocol: as §1, §2

[10] = target: T1, PKC-ε (endogenous, IMR-32 lysate); test: WB competition Protocol B, IMR-32 extract, vs anti-PKC-ε Ab; PKC-ε Band 2; 50 µg peptide
Protocol: as §1, §2

T3 sequence (P05771 2-671 limits assumed): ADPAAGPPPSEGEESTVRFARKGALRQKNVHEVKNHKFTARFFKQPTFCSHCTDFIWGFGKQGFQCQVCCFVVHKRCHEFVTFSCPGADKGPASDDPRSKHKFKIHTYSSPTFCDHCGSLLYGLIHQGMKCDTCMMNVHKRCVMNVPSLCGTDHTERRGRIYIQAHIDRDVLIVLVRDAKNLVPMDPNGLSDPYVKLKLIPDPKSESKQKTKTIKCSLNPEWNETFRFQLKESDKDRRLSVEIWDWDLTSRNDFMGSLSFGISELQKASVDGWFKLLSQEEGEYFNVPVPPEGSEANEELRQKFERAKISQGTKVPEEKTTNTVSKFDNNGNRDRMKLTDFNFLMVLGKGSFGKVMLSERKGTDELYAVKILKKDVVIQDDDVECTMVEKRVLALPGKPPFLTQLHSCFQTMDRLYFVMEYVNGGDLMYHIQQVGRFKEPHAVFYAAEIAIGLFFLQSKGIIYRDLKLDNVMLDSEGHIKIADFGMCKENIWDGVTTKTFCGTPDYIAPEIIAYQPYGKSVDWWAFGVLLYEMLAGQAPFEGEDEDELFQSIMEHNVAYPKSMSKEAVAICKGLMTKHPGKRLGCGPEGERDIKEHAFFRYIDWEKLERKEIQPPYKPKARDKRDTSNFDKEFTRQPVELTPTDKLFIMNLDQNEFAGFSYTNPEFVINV
T4 sequence (Q05655 whole entry, stated change not applied, canonical isoform): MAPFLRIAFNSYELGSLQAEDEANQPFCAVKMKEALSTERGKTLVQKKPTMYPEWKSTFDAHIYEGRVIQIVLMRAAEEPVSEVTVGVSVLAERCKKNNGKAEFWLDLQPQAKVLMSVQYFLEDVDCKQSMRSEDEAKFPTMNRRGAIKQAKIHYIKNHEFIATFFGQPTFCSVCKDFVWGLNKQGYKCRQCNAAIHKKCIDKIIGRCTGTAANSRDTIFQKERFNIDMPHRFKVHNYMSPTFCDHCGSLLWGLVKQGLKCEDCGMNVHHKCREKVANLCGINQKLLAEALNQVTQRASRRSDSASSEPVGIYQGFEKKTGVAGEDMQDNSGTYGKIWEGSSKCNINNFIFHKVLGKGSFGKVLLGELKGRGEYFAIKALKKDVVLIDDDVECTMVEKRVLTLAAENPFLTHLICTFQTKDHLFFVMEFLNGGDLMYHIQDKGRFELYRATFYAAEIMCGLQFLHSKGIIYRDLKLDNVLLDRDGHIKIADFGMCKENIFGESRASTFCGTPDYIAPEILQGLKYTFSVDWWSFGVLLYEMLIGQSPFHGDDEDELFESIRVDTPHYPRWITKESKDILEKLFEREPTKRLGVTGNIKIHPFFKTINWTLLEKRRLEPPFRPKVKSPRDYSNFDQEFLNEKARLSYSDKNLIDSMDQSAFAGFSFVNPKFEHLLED
T2 sequence (P05771 other isoform, or with tags, fused parts or gaps limits assumed): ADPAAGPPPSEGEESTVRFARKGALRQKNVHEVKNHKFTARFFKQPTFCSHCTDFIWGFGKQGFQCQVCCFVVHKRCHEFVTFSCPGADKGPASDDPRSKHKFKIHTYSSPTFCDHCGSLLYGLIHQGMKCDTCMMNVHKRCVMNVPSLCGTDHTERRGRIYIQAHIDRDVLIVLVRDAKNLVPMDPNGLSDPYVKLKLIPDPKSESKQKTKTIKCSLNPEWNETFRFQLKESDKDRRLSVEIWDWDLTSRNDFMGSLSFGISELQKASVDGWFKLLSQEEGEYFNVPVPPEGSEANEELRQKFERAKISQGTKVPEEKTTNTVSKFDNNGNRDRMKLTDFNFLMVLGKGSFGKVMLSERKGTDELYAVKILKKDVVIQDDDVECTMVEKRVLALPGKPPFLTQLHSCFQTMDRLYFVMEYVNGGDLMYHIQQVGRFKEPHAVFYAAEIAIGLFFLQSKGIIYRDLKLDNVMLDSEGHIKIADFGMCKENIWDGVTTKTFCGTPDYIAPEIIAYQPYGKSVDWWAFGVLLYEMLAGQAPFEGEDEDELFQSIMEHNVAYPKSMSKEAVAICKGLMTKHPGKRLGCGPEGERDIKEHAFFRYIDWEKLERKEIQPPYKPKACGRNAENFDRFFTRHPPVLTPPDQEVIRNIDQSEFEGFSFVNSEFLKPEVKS

Binder: Ac-KDAQNLIGISI-NH2 (also called peptide PRE 4) [PRE 4]
- Band Intensity [1]: 0
- Inhibition (%) [1]: 100%
- Relative Intensity (%) [1]: 0%
- relative binding capacity (100-%n, DMSO subtracted) [2]: 13.5%
- relative binding capacity (100-%n, DMSO subtracted) [3]: 7.46%
- Band Intensity [4]: 153
- Inhibition (%) [4]: 46.6%
- Relative Intensity (%) [4]: 53.3%
- Band Intensity [5]: 0
- Inhibition (%) [5]: 100%
- Relative Intensity (%) [5]: 0%
- relative binding capacity (100-%n, DMSO subtracted) (PKC-δ (purified isoform) [6]): 17.3%
- relative binding capacity (100-%n, DMSO subtracted) (PKC-δ (purified isoform) [7]): 29.2%
- relative binding capacity (100-%n, DMSO subtracted) [8]: 6.02%
- Band Intensity [9]: 0
- Inhibition (%) [9]: 100%
- Relative Intensity (%) [9]: 0%
- Band Intensity [10]: 0
- Inhibition (%) [10]: 100%
- Relative Intensity (%) [10]: 0%
